{"source": "patent US20180021429A1", "about": "“ANTICANCER AGENTS OR ANTIMETASTATIC AGENTS USING FSTL1 AND COMBINATION DRUG THEREOF” (PHARMA FOODS INTERNATIONAL CO., LTD., priority 2015, published 2018)", "molecules": {"B1": {"name": "#6-55: chicken-mouse chimeric anti-FSTL1 antibody clone; variable regions SEQ ID NO: 783 (light), 785 (heavy) (antibody, V domains shown)", "VH": "AVTLDESGGGLQTPGGALSLVCKGSGFTFTSVTMQWVRQAPGKGLEWVASVCSGSSTYYAPAVKGRATISRDNGQSTVRLQLSNLRPEDTGTYYCAKIAGRARWSCTSAAYNIDAWGHGTEVIVSS", "VL": "ASTQPSSVSAIPGETVKITCSGGGNNYGWYQQRSPGSAPVTVIYYNDNRPSNIPSRFSGSTSGSTSTLTITGVQADDEAIYYCGSWDSNTDSGIFGAGTTLTVL", "modifications": "mouse constant regions"}}, "tested_on": "Panc1, Panc1-snail+, MIAPaCa, MDA231, Hs294T", "assay": "Proliferative capacity and invasive capacity of various human tumor cells (Example 26)", "format": "cell-based", "conditions": "antibody 5 μg/ml; 3 days culture; Matrigel transwell 4 hours", "procedure": "Specifically, the influence of the anti-FSTL1 antibody on proliferative capacity and invasive capacity was studied using various human tumor cells, regardless of the presence or absence of the expression of Snail or FSTL1. Specifically, the anti-FSTL1 antibody (#6-55, 5 μg/ml) or a control antibody (aHema: mouse chimeric anti-hemagglutinin antibody, 5 μg/ml) was added to systems in which a pancreatic cancer cell line Panc1 (ATCC #CRL-1469), Panc1-snail+ which is a Panc1 cell line forced to express Snail, a pancreatic cancer cell line MIAPaCa (ATCC #CRL-1420), a bone metastatic breast cancer cell line MDA231 (ATCC #HTB-26), and a melanoma cell line Hs294T (ATCC #HTB-140) were each cultured at 1×10^5 cells. After culture for 3 days, the number of cells per culture system was counted to evaluate the proliferative capacity of the cells. The cells (5×10^4 cells) after the counting were further inoculated to Matrigel-coated transwell chamber (Corning Inc. #354480) and cultured for 4 hours. Then, the membranes were removed, and stained and fixed with Crystal Violet fixative. Then, the number of cells that permeated the membranes was counted under a microscope to evaluate the invasive capacity of the cells."}
{"molecule": "B1", "values": [{"measurement": "proliferative capacity and invasive capacity of tumor cells", "result": "both proliferative capacity and invasive capacity were strongly suppressed, particularly, in a highly metastatic tumor cell line highly expressing Snail"}]}
